The source of these data is publication PMC10441885.

In the test the target is recombinant PsCAT1 fusion protein (His6-SUMO-PsCAT1 without the signal peptide, from pET15b-SUMO-PsCAT1) (Puccinia striiformis f. sp. tritici). The test can be described thus: SEC. In general terms: SEC sorts molecules by how far they enter the pores of the column.

The term stoichiometry N denotes the number of molecules, sites or subunits per partner or assembly.

For “recombinant PsCAT1 fusion protein (His6-SUMO-PsCAT1 without the signal peptide, from pET15b-SUMO-PsCAT1) (enzyme)”, the stoichiometry N was 23.
